Reference: US9260500B2, “Peptide and use thereof” (Takeda Pharmaceutical Company Limited, priority 2009, dated 2016)
Starred links: 1 amine or outer side, 2 acyl side, 3 side chain; linkers in the order of their positions; H or OH if unused. Non-standard residues stand in square brackets, D forms with d. *: point of attachment. Ala(piperidin-4-yl) = O=C([C@H](CC1CCN([*:3])CC1)N[*:1])[*:2]; βHOAla = beta-homoalanine (β-HOAla), D- or L-form; tBuAla = CC(C)(C)C[C@H](N)C(=O)O; 4Pal = N[C@@H](Cc1ccncc1)C(=O)O; dHyp = O=C(O)[C@H]1C[C@H](O)CN1; Cha = N[C@@H](CC1CCCCC1)C(=O)O; d(αMeP) = C[C@]1(C(=O)O)CCCN1; Isobutyryl = CC(C)C(=O)*; Orn = NCCC[C@H](N)C(=O)O; Dab = NCC[C@H](N)C(=O)O; Abu = CC[C@H](N)C(=O)O; Nar = not defined here; Aib = CC(C)(N)C(=O)O; Ahx = NCCCCCC(=O)O

Tests used:
human Y2 receptor [1] = target: T1, human Y2 receptor (Homo sapiens, UniProt P49146); experiment: Receptor Binding Assay (RBA) for Human Y2, [125I]-PYY displacement on hY2R/CHO membrane fraction; details: IC50 of test compound/IC50 of PYY(3-36) (PYY(3-36) taken as 1)
T1 construct: expressed in transfected cells; membrane fraction
T1 sequence (P49146 1-381): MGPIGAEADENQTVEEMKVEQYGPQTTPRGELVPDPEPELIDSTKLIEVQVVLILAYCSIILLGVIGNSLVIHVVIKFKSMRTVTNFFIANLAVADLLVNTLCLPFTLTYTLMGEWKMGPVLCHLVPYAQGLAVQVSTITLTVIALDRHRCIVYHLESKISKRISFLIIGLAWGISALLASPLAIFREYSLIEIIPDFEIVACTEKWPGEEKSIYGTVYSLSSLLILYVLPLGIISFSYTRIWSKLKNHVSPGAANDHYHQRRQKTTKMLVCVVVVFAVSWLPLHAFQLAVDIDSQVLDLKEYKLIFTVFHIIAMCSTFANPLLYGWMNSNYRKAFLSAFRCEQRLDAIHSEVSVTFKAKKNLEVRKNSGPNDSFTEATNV
Summary of the method: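 Read-out is [125I]-PYY displacement from membranes of CHO/dhfr− cells stably transfected with human Y2R. Membranes were obtained by disrupting cells in a buffer of 10 mM NaHCO3, 5 mM EDTA and protease inhibitors.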

human Y2 receptor [2] = target: T1, human Y2 receptor; experiment: Human Y2 Receptor G Protein Binding Assay (GBA), [35S]GTPγS; assay type: biochemical; details: EC50 of test compound/EC50 of PYY(3-36) (PYY3-36 taken as 1), hY2R/CHO membrane fraction
Summary of the method: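 Agonism measured as [35S]GTPγS binding, read by GF/C filtration and scintillation counting after 120 min at room temperature, using human Y2 membranes at 1 μg protein/mL in pH 7.4 Tris/MgCl2/NaCl/GDP buffer. Compound serially diluted 100 μM–1 nM; EC50 normalized to PYY(3-36) (ratio = compound/PYY).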

Substance | RBA IC50 Ratio (human Y2 receptor [1]) | GBA EC50 Ratio (human Y2 receptor [2])
Isobutanoyl-[Abu26, Cha27,28,36, Ser30, Aib31]-PYY(25-36) (Isobutyryl-R[Abu][Cha][Cha]NS[Aib]TRQR[Cha]-NH2; SMILES CC[C@H](NC(=O)[C@H](CCCNC(=N)N)NC(=O)C(C)C)C(=O)N[C@@H](CC1CCCCC1)C(=O)N[C@@H](CC1CCCCC1)C(=O)N[C@@H](CC(N)=O)C(=O)N[C@@H](CO)C(=O)NC(C)(C)C(=O)N[C@H](C(=O)N[C@@H](CCCNC(=N)N)C(=O)N[C@@H](CCC(N)=O)C(=O)N[C@@H](CCCNC(=N)N)C(=O)N[C@@H](CC1CCCCC1)C(N)=O)[C@@H](C)O) [compound No. 89] | 26 | 28
Ac-[D-Pro24, Cha27,28,36, Dab30, Aib31]-PYY(23-36) (Ac-S[dP]RH[Cha][Cha]N[Dab][Aib]TRQR[Cha]-NH2; SMILES CC(=O)N[C@@H](CO)C(=O)N1CCC[C@@H]1C(=O)N[C@@H](CCCNC(=N)N)C(=O)N[C@@H](Cc1c[nH]cn1)C(=O)N[C@@H](CC1CCCCC1)C(=O)N[C@@H](CC1CCCCC1)C(=O)N[C@@H](CC(N)=O)C(=O)N[C@@H](CCN)C(=O)NC(C)(C)C(=O)N[C@H](C(=O)N[C@@H](CCCNC(=N)N)C(=O)N[C@@H](CCC(N)=O)C(=O)N[C@@H](CCCNC(=N)N)C(=O)N[C@@H](CC1CCCCC1)C(N)=O)[C@@H](C)O) [compound No. 165] | 2.6 | 1.6
Ac-[D-Pro24, Pya(4)26, Cha27,36, Aib28,31, Lys30]-PYY(22-36) (Ac-AS[dP]R[4Pal][Cha][Aib]NK[Aib]TRQR[Cha]-NH2; SMILES CC(=O)N[C@@H](C)C(=O)N[C@@H](CO)C(=O)N1CCC[C@@H]1C(=O)N[C@@H](CCCNC(=N)N)C(=O)N[C@@H](Cc1ccncc1)C(=O)N[C@@H](CC1CCCCC1)C(=O)NC(C)(C)C(=O)N[C@@H](CC(N)=O)C(=O)N[C@@H](CCCCN)C(=O)NC(C)(C)C(=O)N[C@H](C(=O)N[C@@H](CCCNC(=N)N)C(=O)N[C@@H](CCC(N)=O)C(=O)N[C@@H](CCCNC(=N)N)C(=O)N[C@@H](CC1CCCCC1)C(N)=O)[C@@H](C)O) [compound No. 219] | 2.3 | 1.7
Isobutanoyl-[Abu26, Cha27,36, Gln28, Aib31]-PYY(25-36) (Isobutyryl-R[Abu][Cha]QNL[Aib]TRQR[Cha]-NH2; SMILES CC[C@H](NC(=O)[C@H](CCCNC(=N)N)NC(=O)C(C)C)C(=O)N[C@@H](CC1CCCCC1)C(=O)N[C@@H](CCC(N)=O)C(=O)N[C@@H](CC(N)=O)C(=O)N[C@@H](CC(C)C)C(=O)NC(C)(C)C(=O)N[C@H](C(=O)N[C@@H](CCCNC(=N)N)C(=O)N[C@@H](CCC(N)=O)C(=O)N[C@@H](CCCNC(=N)N)C(=O)N[C@@H](CC1CCCCC1)C(N)=O)[C@@H](C)O) [compound No. 100] | 45 | 30
[Acp23, D-Pro24, Pya(4)26, Cha27,36, Aib28,31, Lys30]-PYY(23-36) (Ac-[Ahx][dP]R[4Pal][Cha][Aib]NK[Aib]TRQR[Cha]-NH2) [compound No. 304] | 0.32 | 1.1
Ac-[D-Pro24, Nar25, Pya(4)26, Cha27,36, Aib28,31, Lys30]-PYY(23-36) (Ac-S[dP][Nar][4Pal][Cha][Aib]NK[Aib]TRQR[Cha]-NH2; reading uncertain) [compound No. 290] | 1.1 | 1.8
Ac-[D-Pro24, Pya(4)26, Ala(4Pip)27, Aib28,31, Lys30, Cha36]-PYY(23-36) [compound No. 309] (Ac-S[dP]R[4Pal][Ala(piperidin-4-yl)][Aib]NK[Aib]TRQR[Cha]-NH2; SMILES CC(=O)N[C@@H](CO)C(=O)N1CCC[C@@H]1C(=O)N[C@@H](CCCNC(=N)N)C(=O)N[C@@H](Cc1ccncc1)C(=O)N[C@@H](CC1CCNCC1)C(=O)NC(C)(C)C(=O)N[C@@H](CC(N)=O)C(=O)N[C@@H](CCCCN)C(=O)NC(C)(C)C(=O)N[C@H](C(=O)N[C@@H](CCCNC(=N)N)C(=O)N[C@@H](CCC(N)=O)C(=O)N[C@@H](CCCNC(=N)N)C(=O)N[C@@H](CC1CCCCC1)C(N)=O)[C@@H](C)O) | 3.8 | 3.9
Ac-[D-Pro24, Orn26, Cha27,28,36, Aib31]-PYY(23-36) (Ac-S[dP]R[Orn][Cha][Cha]NL[Aib]TRQR[Cha]-NH2; SMILES CC(=O)N[C@@H](CO)C(=O)N1CCC[C@@H]1C(=O)N[C@@H](CCCNC(=N)N)C(=O)N[C@@H](CCCN)C(=O)N[C@@H](CC1CCCCC1)C(=O)N[C@@H](CC1CCCCC1)C(=O)N[C@@H](CC(N)=O)C(=O)N[C@@H](CC(C)C)C(=O)NC(C)(C)C(=O)N[C@H](C(=O)N[C@@H](CCCNC(=N)N)C(=O)N[C@@H](CCC(N)=O)C(=O)N[C@@H](CCCNC(=N)N)C(=O)N[C@@H](CC1CCCCC1)C(N)=O)[C@@H](C)O) [compound No. 150] | 4.2 | 2.2
Ac-[Ala26, Ile28,31, Arg(Me)35]-PYY(22-36) [compound No. 1] | 50 | 13

Next, values leading:

RBA IC50 Ratio (human Y2 receptor [1]) | GBA EC50 Ratio (human Y2 receptor [2]) | Substance
3.4 | 2.2 | Ac-[Glu23, D-Hyp24, Pya(4)26, Cha27,36, Aib28,31, Lys30]-PYY(23-36) (Ac-E[dHyp]R[4Pal][Cha][Aib]NK[Aib]TRQR[Cha]-NH2; SMILES CC(=O)N[C@@H](CCC(=O)O)C(=O)N1C[C@@H](O)C[C@@H]1C(=O)N[C@@H](CCCNC(=N)N)C(=O)N[C@@H](Cc1ccncc1)C(=O)N[C@@H](CC1CCCCC1)C(=O)NC(C)(C)C(=O)N[C@@H](CC(N)=O)C(=O)N[C@@H](CCCCN)C(=O)NC(C)(C)C(=O)N[C@H](C(=O)N[C@@H](CCCNC(=N)N)C(=O)N[C@@H](CCC(N)=O)C(=O)N[C@@H](CCCNC(=N)N)C(=O)N[C@@H](CC1CCCCC1)C(N)=O)[C@@H](C)O) [compound No. 208]
0.43 | 0.88 | Isobutanoyl-[Glu23, D-Pro24, Pya(4)26, Cha27,36, Leu(Me)28, Lys30, Aib31]-PYY(23-36) (Isobutyryl-E[dP]R[4Pal][Cha][tBuAla]NK[Aib]TRQR[Cha]-NH2; SMILES CC(C)C(=O)N[C@@H](CCC(=O)O)C(=O)N1CCC[C@@H]1C(=O)N[C@@H](CCCNC(=N)N)C(=O)N[C@@H](Cc1ccncc1)C(=O)N[C@@H](CC1CCCCC1)C(=O)N[C@@H](CC(C)(C)C)C(=O)N[C@@H](CC(N)=O)C(=O)N[C@@H](CCCCN)C(=O)NC(C)(C)C(=O)N[C@H](C(=O)N[C@@H](CCCNC(=N)N)C(=O)N[C@@H](CCC(N)=O)C(=O)N[C@@H](CCCNC(=N)N)C(=O)N[C@@H](CC1CCCCC1)C(N)=O)[C@@H](C)O) [compound No. 170]
0.68 | 0.56 | Ac-[D-Pro24, Pya(4)26, Cha27,36, Aib28,31, Lys30]-PYY(24-36) (Ac-[dP]R[4Pal][Cha][Aib]NK[Aib]TRQR[Cha]-NH2; SMILES CC(=O)N1CCC[C@@H]1C(=O)N[C@@H](CCCNC(=N)N)C(=O)N[C@@H](Cc1ccncc1)C(=O)N[C@@H](CC1CCCCC1)C(=O)NC(C)(C)C(=O)N[C@@H](CC(N)=O)C(=O)N[C@@H](CCCCN)C(=O)NC(C)(C)C(=O)N[C@H](C(=O)N[C@@H](CCCNC(=N)N)C(=O)N[C@@H](CCC(N)=O)C(=O)N[C@@H](CCCNC(=N)N)C(=O)N[C@@H](CC1CCCCC1)C(N)=O)[C@@H](C)O) [compound No. 251]
1.2 | 1.6 | Ac-[Dap22, D-Pro24, Pya(4)26, Cha27,36, Aib28,31, Lys30]-PYY(22-36) [compound No. 273]
2.4 | 2.8 | Ac-[β-HOAla24, Pya(4)26, Cha27,36, Aib28,31, Lys30]-PYY(23-36) [compound No. 244] (Ac-S[βHOAla]R[4Pal][Cha][Aib]NK[Aib]TRQR[Cha]-NH2; also: former peak, β-HOAla D/L configuration not assigned)
2.5 | 2.4 | Ac-[D-Pro24, Pya(4)26, Cha27,36, Aib28,31, Trp30]-PYY(23-36) (Ac-S[dP]R[4Pal][Cha][Aib]NW[Aib]TRQR[Cha]-NH2; SMILES CC(=O)N[C@@H](CO)C(=O)N1CCC[C@@H]1C(=O)N[C@@H](CCCNC(=N)N)C(=O)N[C@@H](Cc1ccncc1)C(=O)N[C@@H](CC1CCCCC1)C(=O)NC(C)(C)C(=O)N[C@@H](CC(N)=O)C(=O)N[C@@H](Cc1c[nH]c2ccccc12)C(=O)NC(C)(C)C(=O)N[C@H](C(=O)N[C@@H](CCCNC(=N)N)C(=O)N[C@@H](CCC(N)=O)C(=O)N[C@@H](CCCNC(=N)N)C(=O)N[C@@H](CC1CCCCC1)C(N)=O)[C@@H](C)O) [compound No. 205]
4.5 | 2.6 | Ac-[D-αMePro24, Cha27,28,36, Aib31]-PYY(23-36) (Ac-S[d(αMeP)]RH[Cha][Cha]NL[Aib]TRQR[Cha]-NH2; SMILES CC(=O)N[C@@H](CO)C(=O)N1CCC[C@]1(C)C(=O)N[C@@H](CCCNC(=N)N)C(=O)N[C@@H](Cc1c[nH]cn1)C(=O)N[C@@H](CC1CCCCC1)C(=O)N[C@@H](CC1CCCCC1)C(=O)N[C@@H](CC(N)=O)C(=O)N[C@@H](CC(C)C)C(=O)NC(C)(C)C(=O)N[C@H](C(=O)N[C@@H](CCCNC(=N)N)C(=O)N[C@@H](CCC(N)=O)C(=O)N[C@@H](CCCNC(=N)N)C(=O)N[C@@H](CC1CCCCC1)C(N)=O)[C@@H](C)O) [compound No. 155]
